# According to PMC10917064:
# Assays:
# [1] = target: mUb-K240 VASP (VASP^CCC-SSA K240C crosslinked by bismaleimidoethane to ubiquitin^(1-74, G75C)) (UniProt P0CG48); assay: mass photometry; 15 nM VASP, room temperature, Refeyn One; margin of error of each mass about 20-25%
# [2] = target: mUb-K286 VASP (VASP^CCC-SSA K286C crosslinked by bismaleimidoethane to ubiquitin^(1-74, G75C)) (UniProt P0CG48); assay: as above
# [3] = target: mmUb-K240/K286 VASP (VASP^CCC-SSA K240C, K286C crosslinked by bismaleimidoethane to two ubiquitin^(1-74, G75C)) (UniProt P0CG48); assay: as above
# [4] = target: chicken skeletal muscle actin (filaments, 10% Alexa Fluor 488 labeled) (chicken) (UniProt P68139); assay: single-molecule TIRF microscopy (dwell time); 1 nM TAMRA–VASP at the trailing barbed end of two-filament bundles; 1.5 µM actin (10% Alexa Fluor 488 labeled), 673 nM fascin, TIRF buffer, room temperature; 0.5 s/frame; one-phase decay fit of 1−cumulative frequency
# [5] = target: unmodified VASP (TAMRA–VASP; cysteine-light VASP^CCC-SSA with an N-terminal GGG motif) (human); assay: mass photometry; 15 nM VASP, room temperature, Refeyn One; margin of error of each mass about 20-25%
substance,measurement,setting,value
"mUb-K240 VASP (VASP^CCC-SSA K240C crosslinked by bismaleimidoethane to ubiquitin^(1-74, G75C)) (from UniProt P0CG48 1-75) (complex)",stoichiometry N,[1],4
"mUb-K286 VASP (VASP^CCC-SSA K286C crosslinked by bismaleimidoethane to ubiquitin^(1-74, G75C)) (from UniProt P0CG48 1-75) (complex)",stoichiometry N,[2],4
"mmUb-K240/K286 VASP (VASP^CCC-SSA K240C, K286C crosslinked by bismaleimidoethane to two ubiquitin^(1-74, G75C)) (from UniProt P0CG48 1-75) (complex)",stoichiometry N,[3],4
same,lifetime τ1 at the barbed end,[4],1.14 s
unmodified VASP (TAMRA–VASP; cysteine-light VASP^CCC-SSA with an N-terminal GGG motif) (natural protein),stoichiometry N,[5],4
same,lifetime τ1 at the barbed end,[4],1.17 s
